Results: patent US9072737B2, “tPA mutant in the treatment of acute brain injury and neurodegenerative disorders” (HADASIT MEDICAL RESEARCH SERVICES & DEVELOPMENT LTD., priority 2008, dated 2015)
“Also recorded” adds a separate entry of the source.

What was measured:
[1] = tested on: CHI mice; test: Neurological severity score (NSS) in closed head injury (CHI) model; assay type: in vivo; settings: for NSS at day 20 following CHI: FIG. 2, 100 μg/mice i.p. two hours after CHI, compared with saline control
Source text: Briefly, after induction of ether anesthesia, a midline longitudinal incision was made, the skin was retracted and the skull was exposed. The left anterior frontal area was identified and a Teflon tipped cone (2-mm diameter) was placed 1 mm lateral to the midline, in the midcoronal plane. The head was held in place manually and a 75-g weight was dropped on the cone from a height of 18 cm, resulting in focal injury to the left hemisphere. […] In sham controls only anesthesia and skin incision were carried out.
Animals were awarded one point for failure to perform one item, so that scores can range from zero (healthy uninjured animals) to a maximum of 10, indicating severe neurological dysfunction, with failure to perform all tasks. The NSS obtained 1 h after trauma reflects the initial severity of injury and is inversely correlated with the neurological outcome. Animals were evaluated 5 h after CHI, and every two to three days until 20 days later. Each animal was assessed by an observer who was blinded to the treatment.
tPA has been reported to signal within the central nervous system by activating NMDA-R, a receptor for glutamine, implicated in neurotoxicity and exictotoxic neuronal cell death, through the cleavage of the NR-1 subunit of NMDA-R. The inventors therefore examined the effect of inhibiting tPA activation of NMDA-R on acute brain trauma, using a tPA mutated molecule devoid of serine protease catalytic activity. […] The effect of administering mutant tPA compositions was assessed using neurobehavioral evaluation based on the determination of a neurological severity score (NSS).

[2] = tested on: CHI mice; test: Brain lesion size at day 20 post CHI; assay type: in vivo; settings: p<0.005 vs control animals
Experimental: After the last NSS evaluation (day 20 post CHI) the brains were then extracted and sectioned coronally into 1-mm segments. The sections were photographed and the area of each section was determined using the NIH computer image analysis program. Any missing area was estimated by overlaying the affected section with images from the contralateral side from the same animal. The volume of the missing portion of the brain was defined as the sum of the missing areas in all sections multiplied by their thickness expressed in cubic pixels. […] Taken together, the data collected indicate that the tPA-S481A has a neuroprotective effect.

[3] = tested on: Blood Brain Barrier (BBB); test: Blood brain barrier permeability, Evans blue uptake into brain; assay type: in vivo, mice; settings: single i.p. injection 1 mg/kg, FIG. 3 and FIG. 4A
Experimental: The uptake of Evans blue dye into a brain tissue served as a marker to for quantifying disruption of the blood-brain barrier and increase in permeability of the BBB. […] Data was expressed as absorbance at 620 nm per gram of tissue. The mean±SEM of data from 8-9 animals/group are shown.
FIG. 4A. Mice were injected i.p. with 25 μl of saline or saline containing either WT-tPA or mtPA (1 mg/kg each) alone or together with PAI-1 derived 18 amino acids (aa) (as denoted by SEQ ID NO. 8) or 6 aa (as denoted by SEQ ID NO. 3) peptides (1 mg/kg each). Ten minutes later, the mice were given an i.v. injection of 2% Evans blue (EB) in saline. One hour after injection of dye, organs were cleared of blood by transcardiac perfusion. […] Extruded dye was quantified by absorbance at 620 nm. The figure presents a histogram illustration of the absorbance of EB at […] per gram of tissue. […]
To determine the effect of injection of tPA-S^481A on BBB function, anesthetized mice were injected i.p. with 25 μl of saline or saline containing tPA or tPA mutant (tPA-Ser^481Ala) (1 mg/kg each), followed by the intravenous injection of 2% Evans blue in saline. Evans blue was quantified by absorbance at 620 nm.
Plasminogen activator inhibitor-1 (PAI-1) is recognized as the inhibitor of tPA. […] Extruded dye was quantified by absorbance at 620 nm. Data are expressed in FIG. 4A as absorbance per gram of tissue.

[4] = tested on: Blood Brain Barrier (BBB) after CHI; test: Duration of BBB permeability after CHI, Evans blue extravasation; assay type: in vivo, mice; settings: mtPA i.p. 1, 2 or 3 hours after CHI; EB measured one hour after dye; FIG. 5
Experimental: Mice were treated with i.p. injection of mtPA 1, 2 or 3 hours after CHI. Five minutes after mtPA injection, the animals were given an IV injection of 2% Evans blue (EB) in saline. Extravasation of EB was measured one hour after injection of the dye. The figure presents a histogram illustration of the absorbance of EB at 620 nM per gram of tissue. The mean±SEM of data from 8-9 animals/group is shown. Abbreviations: Abs (Absorbance), T (time), h (hour), min. (minutes).
To examine the effect of tPA-S481A (mtPA) on BBB permeability after opening due to CHI, the tPA mutant was injected to 8-9 mice i.p. 1, 2 or 3 hours after CHI. Mice undergoing CHI alone served as controls for the indication of normal BBB behavior after head trauma. In both groups, the extravasation of EB was measured one hour after injection of the dye.

[5] = tested on: CHI mice; test: Lactate and glutamate concentration in CSF after CHI; assay type: in vivo; settings: 100 μg/mice i.p. two hours after CHI
Experimental: CSF samples were taken from the cisterna magna in anaesthetized mice, using a microcapillary as described by others. Samples were immediately frozen at −70° C. until analysis by high-performance liquid chromatography (HPLC). Glutamate and lactate were derivatized using ortho-phthaldialdehyde/b-mercaptoethanol and the samples were injected onto the column. Peaks were detected using a fluorescence detector.
Therefore, groups of 8-9 animals were injected with mutant tPA, (100 μg/mice) in saline or saline alone intraperitoneally (i.p.) two hours after the head trauma and, the concentration of lactate and glutamate in the CSF have been measured.

[6] = tested on: plasminogen; test: PA catalytic activity of tPA mutant; assay type: biochemical; settings: data not shown
Source text: Tissue type plasminogen activator (tPA) a multidomain, glycosylated, serine protease is a fibrin specific activator of plasminogen and a very effective thrombolytic agent. It should be appreciated that “mutated tPA” or “mtPA” as used herein includes a mutated native tPA and recombinant mutated tPA, as well as modified forms of tPA that is devoid of the enzymatic activities of native tPA. More specifically, as used herein in the specification and in the claims section below, the term “devoid of protease or serine protease catalytic activity” and its derivatives refers to a mutated tPA molecule having impaired, decreased or reduced expression of activity. A preferred mutated tPA molecule lacks any catalytic activity. According to one embodiment of the present invention at least about 10-100%, more specifically, about 10%, 15%, 20%, 25%, 30%, 35%, 40%, 45%, 50%, 55%, 60%, 65%, 70%, 75%, 80%, 85%, 90%, 95%, 99% and even 100% of the tPA activity is abolished by the point mutation performed by the invention, as compared to the WT (wild type) tPA activity. It should be noted that the enzymatic activity of tPA can be measured by assessing the ability of the molecule to convert plasminogen to plasmin.

| Molecule | NSS at day 20 following CHI [1] | Lesion size (volume of missing portion of the brain) [2] | BBB permeability (Evans blue absorbance at 620 nm per gram of tissue) [3] | neurological severity score (NSS) ([1]; FIG. 1, 100 μg/mice i.p. two hours after head trauma, 10-point scale) | BBB permeability (Evans blue absorbance at 620 nm per gram of tissue) ([3]; 1 mg/kg) | duration of increased BBB permeability after CHI [4] | accumulation of lactate in CSF post-TBI ([5]; FIG. 6A) | accumulation of glutamate in CSF post-TBI ([5]; FIG. 6B) | PA catalytic activity [6] |
| --- | --- | --- | --- | --- | --- | --- | --- | --- | --- |
| WT tPA: Recombinant wild type human tissue plasminogen activator expressed in S2 Drosophila system, SEQ ID NO. 2 (protein, listed as Homo sapiens) GARSYQVICRDEKTQMIYQQHQSWLRPVLRSNRVEYCWCNSGRAQCHSVPVKSCSEPRCFNGGTCQQALYFSDFVCQCPEGFAGKCCEIDTRATCYEDQGISYRGTWSTAESGAECTNWNSSALAQKPYSGRRPDAIRLGLGNHNYCRNPDRDSKPWCYVFKAGKYSSEFCSTPACSEGNSDCYFGNGSAYRGTHSLTESGASCLPWNSMILIGKVYTAQNPSAQALGLGKHNYCRNPDGDAKPWCHVLKNRRLTWEYCDVPSCSTCGLRQYSQPQFRIKGGLFADIASHPWQAAIFAKHRRSPGERFLCGGILISSCWILSAAHCFQERFPPHHLTVILGRTYRVVPGEEEQKFEVEKYIVHKEFDDDTYDNDIALLQLKSDSSRCAQESSVVRTVCLPPADLQLPDWTECELSGYGKHEALSPFYSERLKEAHVRLYPSSRCTSQHLLNRTVTDNMLCAGDTRSGGPQANLHDACQGDSGGPLVCLNDGRMTLVGIISWGLGCGQKDVPGVYTKVTNYLDWIRDNMRP | significantly higher than that of control mice | 167289±31456 pixels | increased BBB permeability | – | – | – | – | – | – |
| tPA-S481A: Recombinant human tPA with Ser481 to Ala point mutation, catalytically inactive, two extra N-terminal residues RS, SEQ ID NO. 1 (protein, listed as Homo sapiens) RSGARSYQVICRDEKTQMIYQQHQSWLRPVLRSNRVEYCWCNSGRAQCHSVPVKSCSEPRCFNGGTCQQALYFSDFVCQCPEGFAGKCCEIDTRATCYEDQGISYRGTWSTAESGAECTNWNSSALAQKPYSGRRPDAIRLGLGNHNYCRNPDRDSKPWCYVFKAGKYSSEFCSTPACSEGNSDCYFGNGSAYRGTHSLTESGASCLPWNSMILIGKVYTAQNPSAQALGLGKHNYCRNPDGDAKPWCHVLKNRRLTWEYCDVPSCSTCGLRQYSQPQFRIKGGLFADIASHPWQAAIFAKHRRSPGERFLCGGILISSCWILSAAHCFQERFPPHHLTVILGRTYRVVPGEEEQKFEVEKYIVHKEFDDDTYDNDIALLQLKSDSSRCAQESSVVRTVCLPPADLQLPDWTECELSGYGKHEALSPFYSERLKEAHVRLYPSSRCTSQHLLNRTVTDNMLCAGDTRSGGPQANLHDACQGDAGGPLVCLNDGRMTLVGIISWGLGCGQKDVPGVYTKVTNYLDWIRDNMRP | significantly improved initial (not shown) and long-term (FIG. 2) neurological outcome | 41525±10987 pixels | – | 0.43 | increased BBB permeability similar to the results of wild type; also recorded: increases BBB permeability to the same extent as WT-tPA | markedly extended the duration of increased BBB permeability | clearly alleviates the accumulation | clearly alleviates the accumulation | lacks any PA catalytic activity |
